{"source": "patent US20200079833A1", "about": "(AstraZeneca / MedImmune, published 2020)", "binders": {"B1": {"name": "SEQ ID NO 71 (peptide)", "peptide": "H[Aib]EGS[αMeF]TSDV[αMeS]S[αMeF]LEGEAA[αMeK]E[αMeF]IA[αMeF]VV[αMeK]K([γGlu-Palmitoyl])G-NH2", "modifications": "N-terminus assumed", "SMILES": "CCCCCCCCCCCCCCCC(=O)N[C@@H](CCC(=O)NCCCC[C@H](NC(=O)[C@](C)(CCCCN)NC(=O)[C@@H](NC(=O)[C@@H](NC(=O)[C@](C)(Cc1ccccc1)NC(=O)[C@H](C)NC(=O)[C@@H](NC(=O)[C@](C)(Cc1ccccc1)NC(=O)[C@H](CCC(=O)O)NC(=O)[C@](C)(CCCCN)NC(=O)[C@H](C)NC(=O)[C@H](C)NC(=O)[C@H](CCC(=O)O)NC(=O)CNC(=O)[C@H](CCC(=O)O)NC(=O)[C@H](CC(C)C)NC(=O)[C@](C)(Cc1ccccc1)NC(=O)[C@H](CO)NC(=O)[C@](C)(CO)NC(=O)[C@@H](NC(=O)[C@H](CC(=O)O)NC(=O)[C@H](CO)NC(=O)[C@@H](NC(=O)[C@](C)(Cc1ccccc1)NC(=O)[C@H](CO)NC(=O)CNC(=O)[C@H](CCC(=O)O)NC(=O)C(C)(C)NC(=O)[C@@H](N)Cc1c[nH]cn1)[C@@H](C)O)C(C)C)[C@@H](C)CC)C(C)C)C(C)C)C(=O)NCC(N)=O)C(=O)O"}, "B2": {"name": "SEQ ID NO 70 (peptide)", "peptide": "H[Aib]EGS[αMeF]TSDV[αMeS]S[αMeF]LEGEAA[αMeK]E[αMeF]IA[αMeF]VV[αMeK]GK([γGlu-Palmitoyl])-NH2", "modifications": "N-terminus assumed", "SMILES": "CCCCCCCCCCCCCCCC(=O)N[C@@H](CCC(=O)NCCCC[C@H](NC(=O)CNC(=O)[C@](C)(CCCCN)NC(=O)[C@@H](NC(=O)[C@@H](NC(=O)[C@](C)(Cc1ccccc1)NC(=O)[C@H](C)NC(=O)[C@@H](NC(=O)[C@](C)(Cc1ccccc1)NC(=O)[C@H](CCC(=O)O)NC(=O)[C@](C)(CCCCN)NC(=O)[C@H](C)NC(=O)[C@H](C)NC(=O)[C@H](CCC(=O)O)NC(=O)CNC(=O)[C@H](CCC(=O)O)NC(=O)[C@H](CC(C)C)NC(=O)[C@](C)(Cc1ccccc1)NC(=O)[C@H](CO)NC(=O)[C@](C)(CO)NC(=O)[C@@H](NC(=O)[C@H](CC(=O)O)NC(=O)[C@H](CO)NC(=O)[C@@H](NC(=O)[C@](C)(Cc1ccccc1)NC(=O)[C@H](CO)NC(=O)CNC(=O)[C@H](CCC(=O)O)NC(=O)C(C)(C)NC(=O)[C@@H](N)Cc1c[nH]cn1)[C@@H](C)O)C(C)C)[C@@H](C)CC)C(C)C)C(C)C)C(N)=O)C(=O)O"}, "B3": {"name": "SEQ ID NO 75 (peptide)", "peptide": "H[Aib]EGS[αMeF]TSDV[αMeS]S[αMeF]LEGEAA[αMeK]E[αMeF]IAK([γGlu-Palmitoyl])VV[αMeK]GG-NH2", "modifications": "N-terminus assumed", "SMILES": "CCCCCCCCCCCCCCCC(=O)N[C@@H](CCC(=O)NCCCC[C@H](NC(=O)[C@H](C)NC(=O)[C@@H](NC(=O)[C@](C)(Cc1ccccc1)NC(=O)[C@H](CCC(=O)O)NC(=O)[C@](C)(CCCCN)NC(=O)[C@H](C)NC(=O)[C@H](C)NC(=O)[C@H](CCC(=O)O)NC(=O)CNC(=O)[C@H](CCC(=O)O)NC(=O)[C@H](CC(C)C)NC(=O)[C@](C)(Cc1ccccc1)NC(=O)[C@H](CO)NC(=O)[C@](C)(CO)NC(=O)[C@@H](NC(=O)[C@H](CC(=O)O)NC(=O)[C@H](CO)NC(=O)[C@@H](NC(=O)[C@](C)(Cc1ccccc1)NC(=O)[C@H](CO)NC(=O)CNC(=O)[C@H](CCC(=O)O)NC(=O)C(C)(C)NC(=O)[C@@H](N)Cc1c[nH]cn1)[C@@H](C)O)C(C)C)[C@@H](C)CC)C(=O)N[C@H](C(=O)N[C@H](C(=O)N[C@@](C)(CCCCN)C(=O)NCC(=O)NCC(N)=O)C(C)C)C(C)C)C(=O)O"}, "B4": {"name": "SEQ ID NO 74 (peptide)", "peptide": "H[Aib]EGS[αMeF]TSDV[αMeS]S[αMeF]LEGEAA[αMeK]E[αMeF]IA[αMeF]K([γGlu-Palmitoyl])V[αMeK]GG-NH2", "modifications": "N-terminus assumed", "SMILES": "CCCCCCCCCCCCCCCC(=O)N[C@@H](CCC(=O)NCCCC[C@H](NC(=O)[C@](C)(Cc1ccccc1)NC(=O)[C@H](C)NC(=O)[C@@H](NC(=O)[C@](C)(Cc1ccccc1)NC(=O)[C@H](CCC(=O)O)NC(=O)[C@](C)(CCCCN)NC(=O)[C@H](C)NC(=O)[C@H](C)NC(=O)[C@H](CCC(=O)O)NC(=O)CNC(=O)[C@H](CCC(=O)O)NC(=O)[C@H](CC(C)C)NC(=O)[C@](C)(Cc1ccccc1)NC(=O)[C@H](CO)NC(=O)[C@](C)(CO)NC(=O)[C@@H](NC(=O)[C@H](CC(=O)O)NC(=O)[C@H](CO)NC(=O)[C@@H](NC(=O)[C@](C)(Cc1ccccc1)NC(=O)[C@H](CO)NC(=O)CNC(=O)[C@H](CCC(=O)O)NC(=O)C(C)(C)NC(=O)[C@@H](N)Cc1c[nH]cn1)[C@@H](C)O)C(C)C)[C@@H](C)CC)C(=O)N[C@H](C(=O)N[C@@](C)(CCCCN)C(=O)NCC(=O)NCC(N)=O)C(C)C)C(=O)O"}, "B5": {"name": "SEQ ID NO 72 (peptide)", "peptide": "H[Aib]EGS[αMeF]TSDV[αMeS]S[αMeF]LEGEAA[αMeK]E[αMeF]IA[αMeF]VVK([γGlu-Palmitoyl])GG-NH2", "modifications": "N-terminus assumed", "SMILES": "CCCCCCCCCCCCCCCC(=O)N[C@@H](CCC(=O)NCCCC[C@H](NC(=O)[C@@H](NC(=O)[C@@H](NC(=O)[C@](C)(Cc1ccccc1)NC(=O)[C@H](C)NC(=O)[C@@H](NC(=O)[C@](C)(Cc1ccccc1)NC(=O)[C@H](CCC(=O)O)NC(=O)[C@](C)(CCCCN)NC(=O)[C@H](C)NC(=O)[C@H](C)NC(=O)[C@H](CCC(=O)O)NC(=O)CNC(=O)[C@H](CCC(=O)O)NC(=O)[C@H](CC(C)C)NC(=O)[C@](C)(Cc1ccccc1)NC(=O)[C@H](CO)NC(=O)[C@](C)(CO)NC(=O)[C@@H](NC(=O)[C@H](CC(=O)O)NC(=O)[C@H](CO)NC(=O)[C@@H](NC(=O)[C@](C)(Cc1ccccc1)NC(=O)[C@H](CO)NC(=O)CNC(=O)[C@H](CCC(=O)O)NC(=O)C(C)(C)NC(=O)[C@@H](N)Cc1c[nH]cn1)[C@@H](C)O)C(C)C)[C@@H](C)CC)C(C)C)C(C)C)C(=O)NCC(=O)NCC(N)=O)C(=O)O"}, "B6": {"name": "SEQ ID NO 73 (peptide)", "peptide": "H[Aib]EGS[αMeF]TSDV[αMeS]S[αMeF]LEGEAA[αMeK]E[αMeF]IA[αMeF]VK([γGlu-Palmitoyl])[αMeK]GG-NH2", "modifications": "N-terminus assumed", "SMILES": "CCCCCCCCCCCCCCCC(=O)N[C@@H](CCC(=O)NCCCC[C@H](NC(=O)[C@@H](NC(=O)[C@](C)(Cc1ccccc1)NC(=O)[C@H](C)NC(=O)[C@@H](NC(=O)[C@](C)(Cc1ccccc1)NC(=O)[C@H](CCC(=O)O)NC(=O)[C@](C)(CCCCN)NC(=O)[C@H](C)NC(=O)[C@H](C)NC(=O)[C@H](CCC(=O)O)NC(=O)CNC(=O)[C@H](CCC(=O)O)NC(=O)[C@H](CC(C)C)NC(=O)[C@](C)(Cc1ccccc1)NC(=O)[C@H](CO)NC(=O)[C@](C)(CO)NC(=O)[C@@H](NC(=O)[C@H](CC(=O)O)NC(=O)[C@H](CO)NC(=O)[C@@H](NC(=O)[C@](C)(Cc1ccccc1)NC(=O)[C@H](CO)NC(=O)CNC(=O)[C@H](CCC(=O)O)NC(=O)C(C)(C)NC(=O)[C@@H](N)Cc1c[nH]cn1)[C@@H](C)O)C(C)C)[C@@H](C)CC)C(C)C)C(=O)N[C@@](C)(CCCCN)C(=O)NCC(=O)NCC(N)=O)C(=O)O"}}, "note": "Starred links: 1 amine or outer side, 2 acyl side, 3 side chain; linkers in the order of their positions; H or OH if unused. Non-standard residues stand in square brackets, D forms with d. Groups on a side chain read outwards from the residue. No end group written: not given here. *: point of attachment. γGlu = O=C(O)[C@H](CCC(=O)[*:2])N[*:1]; Palmitoyl = CCCCCCCCCCCCCCCC(=O)*; αMeF = C[C@](N)(Cc1ccccc1)C(=O)O; αMeK = C[C@](N)(CCCCN)C(=O)O; αMeS = C[C@](N)(CO)C(=O)O; Aib = CC(C)(N)C(=O)O", "data": [{"target": "GLP-1 receptor (human, UniProt P43220 24-463)", "assay": "cell-based or functional assay", "units": {"Primary assay EC50 (cAMP), Mean pM GLP-1R": "pM", "Primary assay EC50 (cAMP), n1": "nM", "Primary assay EC50 (cAMP), n2": "nM"}, "values": [{"binder": "B1", "Primary assay EC50 (cAMP), Mean pM GLP-1R": 7.1, "Primary assay EC50 (cAMP), n1": 0.0062, "Primary assay EC50 (cAMP), n2": 0.008}, {"binder": "B2", "Primary assay EC50 (cAMP), Mean pM GLP-1R": 83, "Primary assay EC50 (cAMP), n1": 0.074, "Primary assay EC50 (cAMP), n2": 0.092}, {"binder": "B3", "Primary assay EC50 (cAMP), Mean pM GLP-1R": 1.7, "Primary assay EC50 (cAMP), n1": 0.002, "Primary assay EC50 (cAMP), n2": 0.0014}, {"binder": "B4", "Primary assay EC50 (cAMP), Mean pM GLP-1R": 2.1, "Primary assay EC50 (cAMP), n1": 0.0023, "Primary assay EC50 (cAMP), n2": 0.002}, {"binder": "B5", "Primary assay EC50 (cAMP), Mean pM GLP-1R": 49, "Primary assay EC50 (cAMP), n1": 0.046, "Primary assay EC50 (cAMP), n2": 0.052}, {"binder": "B6", "Primary assay EC50 (cAMP), Mean pM GLP-1R": 146, "Primary assay EC50 (cAMP), n1": 0.13, "Primary assay EC50 (cAMP), n2": 0.16}]}, {"target": "glucagon receptor (human, UniProt P47871 26-477)", "sequence (P47871 26-477)": "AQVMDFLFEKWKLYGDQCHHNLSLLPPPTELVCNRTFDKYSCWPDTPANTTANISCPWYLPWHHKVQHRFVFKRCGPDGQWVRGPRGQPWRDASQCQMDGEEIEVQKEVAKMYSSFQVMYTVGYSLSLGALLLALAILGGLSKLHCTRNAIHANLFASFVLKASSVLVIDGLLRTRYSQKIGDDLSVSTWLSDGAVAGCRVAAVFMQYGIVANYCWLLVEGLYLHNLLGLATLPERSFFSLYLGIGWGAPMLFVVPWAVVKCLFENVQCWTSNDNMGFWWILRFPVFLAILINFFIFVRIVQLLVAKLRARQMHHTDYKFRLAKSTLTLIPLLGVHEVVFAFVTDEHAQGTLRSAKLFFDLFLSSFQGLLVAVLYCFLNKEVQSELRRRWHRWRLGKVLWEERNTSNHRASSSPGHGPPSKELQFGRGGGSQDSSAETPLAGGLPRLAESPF", "assay": "cell-based or functional assay", "units": {"Primary assay EC50 (cAMP), n1": "nM", "Primary assay EC50 (cAMP), n2": "nM"}, "values": [{"binder": "B1", "Primary assay EC50 (cAMP), n1": 27, "Primary assay EC50 (cAMP), n2": 27}, {"binder": "B2", "Primary assay EC50 (cAMP), n1": 27, "Primary assay EC50 (cAMP), n2": 27}, {"binder": "B3", "Primary assay EC50 (cAMP), n1": 28, "Primary assay EC50 (cAMP), n2": 28}, {"binder": "B4", "Primary assay EC50 (cAMP), n1": 28, "Primary assay EC50 (cAMP), n2": 28}, {"binder": "B5", "Primary assay EC50 (cAMP), n1": 28, "Primary assay EC50 (cAMP), n2": 28}, {"binder": "B6", "Primary assay EC50 (cAMP), n1": 28, "Primary assay EC50 (cAMP), n2": 28}]}, {"target": "T1, glucose-dependent insulinotropic peptide (gastric inhibitory polypeptide) receptor (human, UniProt P48546 22-466)", "T1 sequence (looked up)": "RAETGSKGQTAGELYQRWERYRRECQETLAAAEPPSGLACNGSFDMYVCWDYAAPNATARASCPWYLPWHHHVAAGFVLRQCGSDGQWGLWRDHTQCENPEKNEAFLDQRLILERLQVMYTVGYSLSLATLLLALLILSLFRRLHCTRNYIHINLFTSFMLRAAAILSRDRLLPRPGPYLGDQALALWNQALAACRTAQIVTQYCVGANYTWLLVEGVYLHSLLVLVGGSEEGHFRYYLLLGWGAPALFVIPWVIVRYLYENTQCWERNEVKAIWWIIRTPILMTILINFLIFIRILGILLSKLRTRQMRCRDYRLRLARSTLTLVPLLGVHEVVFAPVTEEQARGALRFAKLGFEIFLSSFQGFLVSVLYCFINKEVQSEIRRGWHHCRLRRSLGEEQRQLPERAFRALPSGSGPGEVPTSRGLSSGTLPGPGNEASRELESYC", "assay": "cell-based or functional assay", "units": {"Primary assay EC50 (cAMP), n1": "nM", "Primary assay EC50 (cAMP), n2": "nM"}, "values": [{"binder": "B1", "Primary assay EC50 (cAMP), n1": 27, "Primary assay EC50 (cAMP), n2": 27}, {"binder": "B2", "Primary assay EC50 (cAMP), n1": 27, "Primary assay EC50 (cAMP), n2": 27}, {"binder": "B3", "Primary assay EC50 (cAMP), n1": 28, "Primary assay EC50 (cAMP), n2": 28}, {"binder": "B4", "Primary assay EC50 (cAMP), n1": 28, "Primary assay EC50 (cAMP), n2": 28}, {"binder": "B5", "Primary assay EC50 (cAMP), n1": 28, "Primary assay EC50 (cAMP), n2": 28}, {"binder": "B6", "Primary assay EC50 (cAMP), n1": 28, "Primary assay EC50 (cAMP), n2": 28}]}]}
